In patent publication US20240116985A1 (published 2024):
Starred links: 1 amine or outer side, 2 acyl side, 3 side chain; linkers in the order of their positions; H or OH if unused. Positions of bridges follow the written chain, without caps; N, C: chain ends. Non-standard residues stand in square brackets, D forms with d. Primed or numbered codes have the meaning given here. PyrS2″ = (S)-3-amino-1-((pent-4-en-1-yloxy)carbonyl)pyrrolidine-3-carboxylic acid (stapling residue), C=CCCCOC(=O)N1CC[C@@](N[*:1])(C(=O)[*:2])C1; B5(16) = 2-amino-2-(pent-4-en-1-yl)hept-6-enoic acid = 2,2-bis(4-pentenyl)glycine (stitching residue), C=CCCCC(CCCC=C)(N[*:1])C(=O)[*:2]; B5(4) = 2,2-bis(4-pentenyl)glycine = 2-amino-2-(pent-4-en-1-yl)hept-6-enoic acid (stitching residue), C=CCCCC(CCCC=C)(N[*:1])C(=O)[*:2]; B5(19) = 2-amino-2-(pent-4-en-1-yl)hept-6-enoic acid (bis(4-pentenyl)glycine), C=CCCCC(CCCC=C)(N[*:1])C(=O)[*:2]; Phe(4-CN) = N#Cc1ccc(C[C@H](N)C(=O)O)cc1; Phe(2-Cl) = N[C@@H](Cc1ccccc1Cl)C(=O)O; Bta = N[C@@H](Cc1csc2ccccc12)C(=O)O; αAllylPro = C=CC[C@@]1(C(=O)O)CCCN1; S8 = C=CCCCCCC[C@](C)(N)C(=O)O

T1: B-cat-Halo (UniProt P35222 1-781)
T1 sequence (looked up): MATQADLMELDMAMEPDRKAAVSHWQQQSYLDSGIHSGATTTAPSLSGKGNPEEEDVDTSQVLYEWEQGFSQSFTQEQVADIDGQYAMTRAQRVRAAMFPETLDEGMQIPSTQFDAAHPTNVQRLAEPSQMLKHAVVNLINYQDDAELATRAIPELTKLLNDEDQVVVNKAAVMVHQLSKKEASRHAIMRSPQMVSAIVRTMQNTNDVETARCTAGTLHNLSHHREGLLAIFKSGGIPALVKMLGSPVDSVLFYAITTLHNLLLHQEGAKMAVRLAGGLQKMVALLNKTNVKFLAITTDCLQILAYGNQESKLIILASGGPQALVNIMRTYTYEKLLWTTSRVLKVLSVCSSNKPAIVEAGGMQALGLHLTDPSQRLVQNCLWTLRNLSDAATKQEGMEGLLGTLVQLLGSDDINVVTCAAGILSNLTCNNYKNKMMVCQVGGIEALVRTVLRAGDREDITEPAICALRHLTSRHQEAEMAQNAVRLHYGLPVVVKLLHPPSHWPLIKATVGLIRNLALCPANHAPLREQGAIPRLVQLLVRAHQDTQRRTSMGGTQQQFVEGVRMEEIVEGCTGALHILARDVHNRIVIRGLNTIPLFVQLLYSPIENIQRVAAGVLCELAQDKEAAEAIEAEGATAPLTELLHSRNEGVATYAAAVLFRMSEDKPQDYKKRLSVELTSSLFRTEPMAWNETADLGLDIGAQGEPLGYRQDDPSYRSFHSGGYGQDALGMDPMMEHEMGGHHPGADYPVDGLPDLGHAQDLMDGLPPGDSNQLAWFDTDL

T2: full-length beta-Catenin (Uniprot ID P35222) (Homo sapiens (Human), UniProt P35222 2-781)
T2 construct: The assay protocols say only 'full-length'; No tag is stated, although the AlphaScreen kit is a Histidine (Nickel Chelate) kit; also called B-Catenin; bCat
T2 sequence: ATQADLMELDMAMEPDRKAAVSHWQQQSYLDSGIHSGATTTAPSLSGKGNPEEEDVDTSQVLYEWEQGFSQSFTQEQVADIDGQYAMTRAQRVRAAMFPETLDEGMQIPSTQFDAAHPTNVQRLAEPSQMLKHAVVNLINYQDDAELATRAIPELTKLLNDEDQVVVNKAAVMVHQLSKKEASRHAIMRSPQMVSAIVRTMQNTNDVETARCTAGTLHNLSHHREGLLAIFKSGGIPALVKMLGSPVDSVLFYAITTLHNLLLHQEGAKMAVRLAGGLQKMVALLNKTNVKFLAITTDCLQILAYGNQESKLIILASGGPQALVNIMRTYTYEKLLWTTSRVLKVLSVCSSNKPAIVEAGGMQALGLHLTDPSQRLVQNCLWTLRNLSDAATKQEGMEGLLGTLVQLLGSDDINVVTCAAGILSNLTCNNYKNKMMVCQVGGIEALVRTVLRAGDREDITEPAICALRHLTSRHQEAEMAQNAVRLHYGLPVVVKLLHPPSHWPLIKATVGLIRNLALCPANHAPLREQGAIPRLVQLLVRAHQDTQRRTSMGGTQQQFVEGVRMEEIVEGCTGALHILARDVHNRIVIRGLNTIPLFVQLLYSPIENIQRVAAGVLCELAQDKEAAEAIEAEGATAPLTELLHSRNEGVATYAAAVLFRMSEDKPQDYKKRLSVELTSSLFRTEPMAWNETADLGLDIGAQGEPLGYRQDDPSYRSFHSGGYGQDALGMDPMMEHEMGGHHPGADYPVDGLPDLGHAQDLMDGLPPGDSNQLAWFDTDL

T3: full-length beta-Catenin (Uniprot ID P35222) (Homo sapiens (Human), UniProt P35222 1-781)
T3 construct: Tags are not described; Also used here as the target of the DLD1 TCF reporter read-out (endogenous beta-catenin in DLD1 cells); also called bCat; B-Catenin
T3 sequence: T1 sequence (looked up)

T4: full-length beta-Catenin (Uniprot ID P35222) (Homo sapiens (Human), UniProt P35222 1-781)
T4 construct: also called bCat; B-Catenin
T4 sequence: T1 sequence (looked up)

B1: I-1047 (peptide)
peptide: Ac-[αAllylPro]DF[B5(16)]DDAAFN[PyrS2″][Phe(2-Cl)][Bta]S-NH2
modifications: staple 1-4, 4-11
notes: also called Ac-PL3-Asp-Phe-B5-Asp-Asp-Ala-Ala-Phe-Asn-PyrS2-2C1F-BztA-Ser-NH2
B2: I-356 (peptide)
peptide: XDAXDDAAFVXAWQ
modifications: not fully specified; N-terminal Ac; C-terminal NH2; PL3 at 1, B5 at 4, S8 at 11 (stapled 1-4 and 4-11)
notes: Stapled peptide composition; Later-eluting isomer composition; also called Ac-PL3-Asp-Ala-B5-Asp-Asp-Ala-Ala-Phe-Val-S8-Ala-Trp-Gln-NH2
B3: I-355 (peptide)
peptide: XDAXDDAAFVXAWQ
modifications: not fully specified; N-terminal Ac; C-terminal NH2; PL3 at 1, B5 at 4, S8 at 11 (stapled 1-4 and 4-11)
notes: Stapled peptide composition; Earlier-eluting isomer composition; also called Ac-PL3-Asp-Ala-B5-Asp-Asp-Ala-Ala-Phe-Val-S8-Ala-Trp-Gln-NH2
B4: I-358 (peptide)
peptide: XDAXDDAAFVXFAQ
modifications: not fully specified; N-terminal Ac; C-terminal NH2; PL3 at 1, B5 at 4, S8 at 11 (stapled 1-4 and 4-11)
notes: Stapled peptide composition; Later-eluting isomer composition; also called Ac-PL3-Asp-Ala-B5-Asp-Asp-Ala-Ala-Phe-Val-S8-Phe-Ala-Gln-NH2
B5: I-1049 (peptide)
peptide: Ac-[αAllylPro]DF[B5(4)]DDAAFT[PyrS2″][Phe(2-Cl)][Bta]S-NH2
modifications: staple 1-4, 4-11
notes: also called Ac-PL3-Asp-Phe-B5-Asp-Asp-Ala-Ala-Phe-Thr-PyrS2-2C1F-BztA-Ser-NH2
B6: I-354 (peptide)
peptide: XDAXDDAAAVXFWQ
modifications: not fully specified; N-terminal Ac; C-terminal NH2; PL3 at 1, B5 at 4, S8 at 11 (stapled 1-4 and 4-11)
notes: Stapled peptide composition; Later-eluting isomer composition; also called Ac-PL3-Asp-Ala-B5-Asp-Asp-Ala-Ala-Ala-Val-S8-Phe-Trp-Gln-NH2
B7: I-359 (peptide)
peptide: Ac-[αAllylPro]DA[B5(19)]DDAAFV[S8][Phe(4-CN)][Bta]Q-NH2
modifications: staple 1-4, 4-11
notes: Stapled peptide composition; also called Ac-PL3-Asp-Ala-B5-Asp-Asp-Ala-Ala-Phe-Val-S8-4CNF-BztA-Gln-NH2
B8: I-359 (peptide)
peptide: Ac-[αAllylPro]DA[B5(19)]DDAAFV[S8][Phe(4-CN)][Bta]Q-NH2
modifications: staple 1-4, 4-11
notes: Stapled peptide; also called Ac-PL3-Asp-Ala-B5-Asp-Asp-Ala-Ala-Phe-Val-S8-4CNF-BztA-Gln-NH2
B9: I-354 (peptide)
peptide: XDAXDDAAAVXFWQ
modifications: not fully specified; N-terminal Ac; PL3 at 1, B5 at 4, S8 at 11 (staples 1-4 and 4-11 by olefin metathesis); C-terminal NH2
notes: Stapled peptide; also called Ac-PL3-Asp-Ala-B5-Asp-Asp-Ala-Ala-Ala-Val-S8-Phe-Trp-Gln-NH2
B10: I-355 (peptide)
peptide: XDAXDDAAFVXAWQ
modifications: not fully specified; N-terminal Ac; PL3 at 1, B5 at 4, S8 at 11 (staples 1-4 and 4-11 by olefin metathesis); C-terminal NH2
notes: Stapled peptide; also called Ac-PL3-Asp-Ala-B5-Asp-Asp-Ala-Ala-Phe-Val-S8-Ala-Trp-Gln-NH2
B11: I-356 (peptide)
peptide: XDAXDDAAFVXAWQ
modifications: not fully specified; N-terminal Ac; PL3 at 1, B5 at 4, S8 at 11 (staples 1-4 and 4-11 by olefin metathesis); C-terminal NH2
notes: as for B10
B12: I-357 (peptide)
peptide: XDAXDDAAFVXFAQ
modifications: not fully specified; N-terminal Ac; PL3 at 1, B5 at 4, S8 at 11 (staples 1-4 and 4-11 by olefin metathesis); C-terminal NH2
notes: Stapled peptide; also called Ac-PL3-Asp-Ala-B5-Asp-Asp-Ala-Ala-Phe-Val-S8-Phe-Ala-Gln-NH2
B13: I-358 (peptide)
peptide: XDAXDDAAFVXFAQ
modifications: not fully specified; N-terminal Ac; PL3 at 1, B5 at 4, S8 at 11 (staples 1-4 and 4-11 by olefin metathesis); C-terminal NH2
notes: as for B12

The binders below were run against T1, B-cat-Halo (assay: cell-based or functional assay).

Row | Binder | NanoBRET Abs IC50
1 | B1 | 28.4 µM

The binders below were run against T2, full-length beta-Catenin (Uniprot ID …) (assay: AlphaScreen competition; peptide titrated against full-length beta-catenin + biotin-TCF4(10-53)).
Protocol: Equal volume of the titrated peptide was added to the plate and incubated for 15 minutes at 20° C. Then 4 uL of donor and 4 uL acceptor beads at 10 ug/mL were added to the plate, for a 16 uL reaction pool and protected from light for 60 minutes at 20° C. prior to read. Reads were performed on a CLARIOstar plate reader (BMG Labtech) in duplicate, and data were fitted to a 1:1 binding model with hill slope using an in-house script. All provided concentrations are final concentrations.

Row | Binder | EC50
2 | B2 | 8.2 µM
3 | B3 | 10 µM
4 | B4 | 10 µM

The binders below were run against T3, full-length beta-Catenin (Uniprot ID …) (assay: fluorescence polarization competition; full-length beta-catenin with 5FAM-TCF4(10-53) probe, peptide titrated).
Protocol: (§1) The plate was incubated protected from light for 60 minutes at 20° C. prior to read. Reads were performed on a CLARIOstar plate reader (BMG Labtech) in duplicate, and data were fitted to a 1:1 binding model with hill slope using an in-house script. All provided concentrations are final concentrations.

Row | Binder | IC50
5 | B5 | 0.006 µM
6 | B1 | 0.005 µM

Each binder was assayed against T2, full-length beta-Catenin (Uniprot ID …) (assay: fluorescence polarization competition; peptide titrated against full-length beta-catenin + 5FAM-TCF4(10-53) probe).
Protocol: as §1

Row | Binder | EC50
7 | B2 | 5 µM
8 | B3 | 5 µM
9 | B6 | 5 µM
10 | B4 | 5 µM
11 | B7 | 5 µM

What follows are binders tested against T4, full-length beta-Catenin (Uniprot ID …) (assay: fluorescence polarization competition; peptide titrated against 10 nM full-length beta-catenin + 10 nM 5FAM-TCF4(10-53)).
Protocol: as §1

Row | Binder | IC50
12 | B8 | 5 µM
13 | B9 | 5 µM
14 | B10 | 5 µM
15 | B11 | 5 µM
16 | B12 | 5 µM
17 | B13 | 5 µM
